What was measured:
ubp1_human USP1 = ubp1_human USP1 (UniProt O94782)
Chain of ubp1_human USP1 (O94782 whole entry): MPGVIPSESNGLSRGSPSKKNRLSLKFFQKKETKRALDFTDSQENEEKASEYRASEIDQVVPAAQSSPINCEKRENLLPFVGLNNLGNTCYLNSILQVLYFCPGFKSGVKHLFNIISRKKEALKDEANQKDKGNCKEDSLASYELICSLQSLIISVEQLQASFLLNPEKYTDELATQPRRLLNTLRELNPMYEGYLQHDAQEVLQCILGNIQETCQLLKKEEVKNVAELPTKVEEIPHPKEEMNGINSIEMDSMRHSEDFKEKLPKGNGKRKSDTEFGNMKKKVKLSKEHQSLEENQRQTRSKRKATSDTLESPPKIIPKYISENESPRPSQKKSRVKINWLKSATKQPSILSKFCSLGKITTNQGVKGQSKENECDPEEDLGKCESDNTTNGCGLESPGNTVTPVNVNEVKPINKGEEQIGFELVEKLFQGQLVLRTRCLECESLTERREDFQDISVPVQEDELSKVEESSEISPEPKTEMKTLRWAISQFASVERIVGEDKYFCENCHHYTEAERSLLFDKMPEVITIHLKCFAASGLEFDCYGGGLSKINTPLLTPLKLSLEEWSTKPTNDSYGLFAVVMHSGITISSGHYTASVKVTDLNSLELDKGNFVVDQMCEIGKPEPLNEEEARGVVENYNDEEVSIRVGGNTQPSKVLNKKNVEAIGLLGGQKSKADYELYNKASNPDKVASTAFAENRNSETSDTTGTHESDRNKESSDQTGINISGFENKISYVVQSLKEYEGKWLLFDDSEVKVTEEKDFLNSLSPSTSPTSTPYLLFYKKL

Chain of USP46, P62068-1 (P62068 whole entry): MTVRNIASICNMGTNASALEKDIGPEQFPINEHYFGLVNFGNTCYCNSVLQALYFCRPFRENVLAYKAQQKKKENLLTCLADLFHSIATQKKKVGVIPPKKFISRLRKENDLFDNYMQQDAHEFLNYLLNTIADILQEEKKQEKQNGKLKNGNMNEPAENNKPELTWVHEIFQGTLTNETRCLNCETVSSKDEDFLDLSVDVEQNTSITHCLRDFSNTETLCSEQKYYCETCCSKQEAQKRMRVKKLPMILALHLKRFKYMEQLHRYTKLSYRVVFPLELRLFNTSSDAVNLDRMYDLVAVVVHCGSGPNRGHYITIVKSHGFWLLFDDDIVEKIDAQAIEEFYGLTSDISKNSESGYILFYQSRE

| effect of a mutation on the interaction (USP46, P62068-1) | effect of a mutation on the interaction (ubp1_human USP1) | Substance |
| --- | --- | --- |
| disrupting interaction strength | disrupting interaction strength | WD repeat-containing protein 48 (Homo sapiens), Q8TAF3-1 K214E;W256A;R272D |
| decreasing interaction strength |  | WD repeat-containing protein 48 (Homo sapiens), Q8TAF3-1 S170Y |

Reference: IntAct's records for PubMed 26388029
